Legend:
Test in all cases: fluorescence anisotropy
BLM642-1290 C1063N = BLM642-1290 C1063N (Homo sapiens, UniProt P54132 642-1290, C1063N)
BLM642-1290 WT = BLM642-1290 WT (Homo sapiens, UniProt P54132 642-1290)
[1] = target: BLM642-1290 zinc-demetalated (WTzn-) (Homo sapiens, UniProt P54132 642-1290)
BLM642-1290 C1055N = BLM642-1290 C1055N (Homo sapiens, UniProt P54132 642-1290, C1055N)
[2] = target: BLM642-1290 C1055N/C1063N (Homo sapiens, UniProt P54132 642-1290, C1055N;C1063N)
Chain of BLM642-1290 C1055N/C1063N (P54132 642-1290 C1055N/C1063N): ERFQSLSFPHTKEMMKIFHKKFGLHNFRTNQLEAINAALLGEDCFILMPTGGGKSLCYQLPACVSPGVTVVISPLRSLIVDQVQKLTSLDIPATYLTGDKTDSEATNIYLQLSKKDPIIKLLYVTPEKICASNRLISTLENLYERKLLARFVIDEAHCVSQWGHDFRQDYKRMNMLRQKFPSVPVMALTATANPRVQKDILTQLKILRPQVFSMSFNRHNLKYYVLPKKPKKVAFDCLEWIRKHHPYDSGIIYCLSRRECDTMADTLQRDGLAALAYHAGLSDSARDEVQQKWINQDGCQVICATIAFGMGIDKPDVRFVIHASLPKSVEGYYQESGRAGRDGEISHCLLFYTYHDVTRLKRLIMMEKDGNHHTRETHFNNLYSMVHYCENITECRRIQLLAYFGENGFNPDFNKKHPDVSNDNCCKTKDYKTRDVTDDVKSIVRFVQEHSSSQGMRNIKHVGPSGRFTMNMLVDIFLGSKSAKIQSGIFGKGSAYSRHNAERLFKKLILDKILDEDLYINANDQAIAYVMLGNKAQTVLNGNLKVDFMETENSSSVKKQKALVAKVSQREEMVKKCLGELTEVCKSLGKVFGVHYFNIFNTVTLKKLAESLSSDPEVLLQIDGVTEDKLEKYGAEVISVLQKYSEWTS

Chain of BLM642-1290 C1055N (P54132 642-1290 C1055N): as the sequence (P54132 642-1290 C1055N/C1063N) above, with N422C counted along it
Chain of BLM642-1290 C1063N (P54132 642-1290 C1063N): as the sequence (P54132 642-1290 C1055N/C1063N) above, with N414C counted along it
Chain of BLM642-1290 WT (P54132 642-1290): as the sequence (P54132 642-1290 C1055N/C1063N) above, with N414C, N422C counted along it
Chain of BLM642-1290 zinc-demetalated (WTzn-) (P54132 642-1290): as the sequence (P54132 642-1290 C1055N/C1063N) above, with N414C, N422C counted along it

Row | Binder | Kd (BLM642-1290 C1063N) [nM] | Kd (BLM642-1290 WT) [nM] | Kd [1] [nM] | Kd (BLM642-1290 C1055N) [nM] | Kd [2] [nM]
1 | GGGTTAGGGTTAGGGTTAGGG (structured_DNA) [F21 G4 DNA] | 1990 | 4.57 | 4.85 | – | –
2 | A/B partial duplex (23mer duplex with ss tails), fluorescent (dsDNA) DNA 1: GCACTGGCCGTCGTTTTACGGTCGTGACTGGGAAAACCCTGGCG DNA 2: TTTTTTTTTTTTTTTTTTTTTTAGCCGTAAAACGACGGCCAGTGC | – | – | – | 56 ± 1.8 | 209 ± 3.5

— PMC1142346
